In publication PMC2887293 (Protein expression and purification, 2010):
Where no end group is shown, it is not given here. fluorescein = fluorescein label attached at the C-terminus

Tests used:
[1] = molecular target: … peptide; conditions: cited from earlier work
[2] = molecular target: human N-His6-mortalin (Δ1-51) (human, UniProt P38646 52-679); assay: fluorescence polarisation
human N-His6-mortalin (Δ1-51), sequence (P38646 52-679, stated change not applied): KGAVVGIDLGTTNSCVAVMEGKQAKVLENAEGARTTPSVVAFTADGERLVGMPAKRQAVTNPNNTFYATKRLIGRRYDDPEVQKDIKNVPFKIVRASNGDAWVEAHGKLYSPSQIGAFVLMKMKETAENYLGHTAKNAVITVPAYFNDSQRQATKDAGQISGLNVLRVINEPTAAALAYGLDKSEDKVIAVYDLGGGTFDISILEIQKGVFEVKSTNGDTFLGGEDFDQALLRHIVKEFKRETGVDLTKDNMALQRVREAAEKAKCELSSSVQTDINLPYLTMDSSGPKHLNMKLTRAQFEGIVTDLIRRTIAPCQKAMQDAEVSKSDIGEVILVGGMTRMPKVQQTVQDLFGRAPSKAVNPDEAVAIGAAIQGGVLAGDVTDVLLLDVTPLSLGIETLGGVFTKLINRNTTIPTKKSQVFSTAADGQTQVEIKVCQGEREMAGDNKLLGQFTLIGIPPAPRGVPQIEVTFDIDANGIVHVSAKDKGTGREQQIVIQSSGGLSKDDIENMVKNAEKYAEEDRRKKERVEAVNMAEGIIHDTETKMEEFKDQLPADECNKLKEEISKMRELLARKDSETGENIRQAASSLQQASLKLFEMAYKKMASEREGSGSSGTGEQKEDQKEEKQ

Ssq1, sequence (Q05931 2-657): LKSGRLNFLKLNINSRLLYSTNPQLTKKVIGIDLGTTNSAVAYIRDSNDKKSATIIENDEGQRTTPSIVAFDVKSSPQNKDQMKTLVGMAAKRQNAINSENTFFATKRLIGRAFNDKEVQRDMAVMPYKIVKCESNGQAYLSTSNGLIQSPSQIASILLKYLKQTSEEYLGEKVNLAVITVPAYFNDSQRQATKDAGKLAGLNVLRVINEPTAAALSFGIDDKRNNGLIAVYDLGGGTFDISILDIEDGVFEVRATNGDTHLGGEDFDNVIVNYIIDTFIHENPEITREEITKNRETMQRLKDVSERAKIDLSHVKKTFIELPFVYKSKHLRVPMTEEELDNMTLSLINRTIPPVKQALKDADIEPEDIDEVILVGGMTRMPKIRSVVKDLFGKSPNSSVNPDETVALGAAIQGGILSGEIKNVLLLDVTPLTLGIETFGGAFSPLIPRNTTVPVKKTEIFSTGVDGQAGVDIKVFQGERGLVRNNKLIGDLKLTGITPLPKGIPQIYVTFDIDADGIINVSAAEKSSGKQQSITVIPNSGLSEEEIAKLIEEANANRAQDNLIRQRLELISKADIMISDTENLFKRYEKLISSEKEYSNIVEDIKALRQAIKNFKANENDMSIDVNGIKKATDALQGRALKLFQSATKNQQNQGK

Ssq1 (from UniProt Q05931)
Kd [1]: 2.8 µM

LSLPPVKLHK-fluorescein [LSLPPVKLHK-fluorescein]
Kd [2]: 1.2 ± 0.1 µM
